The target of series [1] is bovine plasminogen (bovine) (UniProt P06868). Put plainly: cell-based or functional assay.
The target in a further series is bovine plasminogen (UniProt P06868).
In series [2] the target is T1, bovine plasminogen, P06868.
T1 chain: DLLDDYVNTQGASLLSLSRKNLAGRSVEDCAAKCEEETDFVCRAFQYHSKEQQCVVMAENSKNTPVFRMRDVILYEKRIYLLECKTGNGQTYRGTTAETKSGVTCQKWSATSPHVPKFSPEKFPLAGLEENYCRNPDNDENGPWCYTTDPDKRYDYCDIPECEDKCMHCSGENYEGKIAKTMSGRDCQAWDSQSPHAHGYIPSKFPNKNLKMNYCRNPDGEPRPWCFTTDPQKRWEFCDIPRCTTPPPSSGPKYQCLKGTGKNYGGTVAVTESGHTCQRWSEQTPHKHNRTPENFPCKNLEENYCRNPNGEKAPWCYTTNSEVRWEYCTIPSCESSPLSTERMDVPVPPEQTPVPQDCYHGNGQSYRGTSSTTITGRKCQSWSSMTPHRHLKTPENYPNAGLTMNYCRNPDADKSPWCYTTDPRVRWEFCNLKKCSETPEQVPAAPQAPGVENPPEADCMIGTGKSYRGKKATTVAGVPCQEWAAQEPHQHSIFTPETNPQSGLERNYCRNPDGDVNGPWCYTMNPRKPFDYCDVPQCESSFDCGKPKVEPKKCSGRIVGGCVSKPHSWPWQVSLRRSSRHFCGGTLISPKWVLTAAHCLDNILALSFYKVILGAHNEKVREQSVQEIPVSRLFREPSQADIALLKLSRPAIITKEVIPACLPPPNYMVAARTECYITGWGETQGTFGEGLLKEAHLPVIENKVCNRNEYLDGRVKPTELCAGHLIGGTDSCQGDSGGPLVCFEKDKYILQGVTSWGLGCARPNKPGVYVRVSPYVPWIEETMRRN

In series [1], “full-length recombinant PauA of S. uberis strain 95-140 expressed from pER326 in E. coli strain Pz326 (enzyme)” yielded a Titer, chromogenic assay of whole cell pellet (titer (inverse of dilution factor)) of 23.3. With “full-length recombinant PauA of S. uberis strain 95-140 expressed from pER330 in E. coli strain Pz330 (enzyme)”, in series [1], the Titer, chromogenic assay of whole cell pellet (titer (inverse of dilution factor)) turned out to be 1.

Consider “purified native PauA (strain not stated where used)”, for which, in the series with bovine plasminogen, the “enzymatic activity, chromogenic assay titer” value is “titer=3256” and the specific activity result is “the specific activity for native PauA was 5.9 chromogenic units/µg”.

“signal peptide-deleted recombinant PauA of S. uberis strain 95-140 expressed from pER328 in E. coli strain Pz328 (enzyme)” yielded a Titer, chromogenic assay of whole cell pellet (titer (inverse of dilution factor)) in series [1] of 5.3.

B1: PauA from S. uberis strain c216 expressed by E. coli strain Pz318 (plasmid pER318) (protein)
chain: MKKWFLILMLLGIFGCATQPSKVAAITGYDSDYYARYIDPDENKITFAINVDGFVEGSNQEILIRGIHHVLTDQNQKIVTKAELLDAIRHQMVLLQLDYSYELVDFAPDAQLLTQDRRLLFANQNFEESVSLEDTIQEYLLKGHVILRKRVEEPITHPTETANIEYKVQFATKDGEFHPLPIFVDYGEKHIGEKLTSDEFRKIAEEKLLQLYPDYMIDQKEYTIIKHNSLGQLPRYYSYQDHFSYEIQDRQRIMAKDPKSGKELGETQSIDNVFEKYLITKKSYKP
As for B1, the “zone of clearing on skim-milk plates with or without bovine plasminogen” value in series [2] is on record as “their ability to express plasminogen-dependent PauA activity was confirmed by their inability to produce a zone of clearing following growth of individual colonies on plasminogen-free skim-milk plates”.

B2: PauA from S. uberis strain 95-140 expressed by E. coli strain Pz319 (plasmid pER319) (protein)
chain: MKKWFLILMLLGIFGCATQPSKVAAITGYDSDYYARYIDPDENKITFAINVDGFVEGSNQEILIRGIHHVLTNQNQKIVTKAELLDAIRHQMVLLQLDYSYELVDFAPDAQLLTRDRRLLFANRNFEESVSLEDTIQEYLLKGHVILRKRVEEPITHPTETANIEYKVQFATKDGEFHPLPIFVDYGEKHIGEKLTSDEFRKIAEEKLLQRYPDYMIDQKEYTIIKHNSLGQLPRYYSYPDDFSYEIQDRQRIMAKDPKSGKELGETQSIDNVFEKYLITKKSYKP
With B2, in series [2], the “zone of clearing on skim-milk plates with or without bovine plasminogen” value is given as “their ability to express plasminogen-dependent PauA activity was confirmed by their inability to produce a zone of clearing following growth of individual colonies on plasminogen-free skim-milk plates”.

B3: GST-PauA^28-286 fusion protein (pER356) (protein)
chain: GYDSDYYARYIDPDENKITFAINVDGFVEGSNQEILIRGIHHVLTNQNQKIVTKAELLDAIRHQMVLLQLDYSYELVDFAPDAQLLTRDRRLLFANRNFEESVSLEDTIQEYLLKGHVILRKRVEEPITHPTETANIEYKVQFATKDGEFHPLPIFVDYGEKHIGEKLTSDEFRKIAEEKLLQRYPDYMIDQKEYTIIKHNSLGQLPRYYSYPDDFSYEIQDRQRIMAKDPKSGKELGETQSIDNVFEKYLITKKSYKP
Regarding B3, in series [2], the “enzymatic activity, chromogenic assay titer” value is reported as “titer=3448” and the specific activity entry is recorded as “the specific activity of GST-PauA^28-286 was 1.4”.

For the origin of these results see patent US6485904.
